This is an account of results in article PMC7959245 (The Plant journal : for cell and molecular biology, 2020).

The target of the test is T1, MBP-COP1 (Arabidopsis thaliana, UniProt P43254 1-675).
T1 sequence (looked up): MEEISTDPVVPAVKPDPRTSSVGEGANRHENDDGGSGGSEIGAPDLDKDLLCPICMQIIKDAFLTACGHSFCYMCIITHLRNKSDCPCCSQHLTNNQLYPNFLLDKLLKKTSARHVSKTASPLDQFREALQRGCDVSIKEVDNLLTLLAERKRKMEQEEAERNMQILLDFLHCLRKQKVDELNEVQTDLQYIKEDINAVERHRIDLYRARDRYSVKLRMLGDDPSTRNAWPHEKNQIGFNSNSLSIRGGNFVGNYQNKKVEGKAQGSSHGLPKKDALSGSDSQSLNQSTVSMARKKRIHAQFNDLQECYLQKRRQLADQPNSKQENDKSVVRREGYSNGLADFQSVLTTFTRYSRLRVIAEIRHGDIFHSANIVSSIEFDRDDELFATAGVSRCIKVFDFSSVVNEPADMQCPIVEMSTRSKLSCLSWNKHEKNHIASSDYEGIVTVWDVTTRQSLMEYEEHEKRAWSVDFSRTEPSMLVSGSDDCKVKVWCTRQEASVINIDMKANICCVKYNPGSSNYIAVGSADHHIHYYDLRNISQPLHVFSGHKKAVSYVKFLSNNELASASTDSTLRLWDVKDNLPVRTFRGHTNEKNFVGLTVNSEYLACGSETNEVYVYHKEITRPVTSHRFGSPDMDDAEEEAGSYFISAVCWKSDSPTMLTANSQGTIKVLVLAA
The test can be described thus: pull-down.

B1: GST-HEC2 (natural protein, Arabidopsis thaliana, UniProt Q9SND4 1-231, looked up)
chain: MDNSDILMNMMMQQMEKLPEHFSNSNPNPNPHNIMMLSESNTHPFFFNPTHSHLPFDQTMPHHQPGLNFRYAPSPSSSLPEKRGGCSDNANMAAMREMIFRIAVMQPIHIDPESVKPPKRKNVRISKDPQSVAARHRRERISERIRILQRLVPGGTKMDTASMLDEAIHYVKFLKKQVQSLEEHAVVNGGGMTAVAGGALAGTVGGGYGGKGCGIMRSDHHQMLGNAQILR
For the molecule B1, the binding result is “binds”.
